Reference: patent US20220177587A1, “METHODS AND USES OF VARIANT CD80 FUSION PROTEINS AND RELATED CONSTRUCTS” (Alpine Immune Sciences, Inc., priority 2018, published 2022)
One block for each molecule: values may come before it.

Biological target: CD28 (Homo sapiens, UniProt P10747)
Assay: Jurkat/IL2 reporter assay: blockade of CD28 costimulation (plate-bound anti-CD3/CD86-Fc)
Type: cell-based
Set-up: host or cells: Jurkat cells expressing an IL-2-luciferase reporter
Details: Table E5, protein diluted to 40 nM before mixing with cells, 5 hours
Description: The day before the assay, the assay plate was prepared. […] The plate was incubated overnight at 4° C. to allow the antibody and CD86-Fc protein to adhere to the surface of the plate. The next day, the wells of the assay plate were washed twice with 150 μL PBS prior to the assay.
Jurkat effector cells expressing IL-2-luciferase reporter were counted and resuspended in assay buffer to a concentration of 2×10^6 cells/mL. 60 μL of the Jurkat cell suspension were then added to the wells containing the CD80-Fc fusion molecules or controls. The cells and CD80 proteins were incubated at room temperature for 15 minutes and then 100 μL of the cell/CD80 protein mixture were transferred/well of the prepared anti-CD3/CD86-Fc assay plate.
The assay plate was briefly spun down (10 seconds at 1200 RPM) and incubated at 37° C. for 5 hours. After the 5 hour incubation, the plate was removed and equilibrated to room temperature for 15 minutes. 100 μL of Bio-Glo (Promega) were added/well of the assay plate, which was then placed on an orbital shaker for 10 minutes. Luminescence was measured with a 1 second per well integration time using a BioTek Cytation 3 luminometer.

B2: A71D: variant CD80 IgV-Fc, IgV SEQ ID NO:170 (protein)
chain: VIHVTKEVKEVATLSCGHNVSVEELAQTRIYWQKEKKMVLTMMSGDMNIWPEYKNRTIFDITNNLSIVILDLRPSDEGTYECVVLKYEKDAFKREHLAEVTLSVKAD
Average Relative Luminescence Units: 999 Relative Luminescence Units

B3: E81K/A91S: variant CD80 IgV-Fc, IgV SEQ ID NO:172 (protein)
chain: VIHVTKEVKEVATLSCGHNVSVEELAQTRIYWQKEKKMVLTMMSGDMNIWPEYKNRTIFDITNNLSIVILALRPSDEGTYKCVVLKYEKDSFKREHLAEVTLSVKAD
Average Relative Luminescence Units: 4038 Relative Luminescence Units

B5: T41S/A71D/V84A: variant CD80 IgV-Fc, IgV SEQ ID NO:175 (protein)
chain: VIHVTKEVKEVATLSCGHNVSVEELAQTRIYWQKEKKMVLSMMSGDMNIWPEYKNRTIFDITNNLSIVILDLRPSDEGTYECVALKYEKDAFKREHLAEVTLSVKAD
Average Relative Luminescence Units: 2685 Relative Luminescence Units

B8: Q33E/T41A: variant CD80 IgV-Fc, IgV SEQ ID NO:179 (protein)
chain: VIHVTKEVKEVATLSCGHNVSVEELAQTRIYWEKEKKMVLAMMSGDMNIWPEYKNRTIFDITNNLSIVILALRPSDEGTYECVVLKYEKDAFKREHLAEVTLSVKAD
Average Relative Luminescence Units: 4220 Relative Luminescence Units

B10: M47L/V68A: variant CD80 IgV-Fc, IgV SEQ ID NO:181 (protein)
chain: VIHVTKEVKEVATLSCGHNVSVEELAQTRIYWQKEKKMVLTMMSGDLNIWPEYKNRTIFDITNNLSIAILALRPSDEGTYECVVLKYEKDAFKREHLAEVTLSVKAD
Average Relative Luminescence Units: 5445 Relative Luminescence Units

B11: S44P/A71D: variant CD80 IgV-Fc, IgV SEQ ID NO:182 (protein)
chain: VIHVTKEVKEVATLSCGHNVSVEELAQTRIYWQKEKKMVLTMMPGDMNIWPEYKNRTIFDITNNLSIVILDLRPSDEGTYECVVLKYEKDAFKREHLAEVTLSVKAD
Average Relative Luminescence Units: 2848 Relative Luminescence Units

B13: E35D/I57I/L70Q/A71D: variant CD80 IgV-Fc, IgV SEQ ID NO:185 (protein)
chain: VIHVTKEVKEVATLSCGHNVSVEELAQTRIYWQKDKKMVLTMMSGDMNIWPEYKNRIIFDITNNLSIVIQDLRPSDEGTYECVVLKYEKDAFKREHLAEVTLSVKAD
Average Relative Luminescence Units: 280 Relative Luminescence Units

B17: V20I/M47V/I57I/V84I: variant CD80 IgV-Fc, IgV SEQ ID NO:190 (protein)
chain: VIHVTKEVKEVATLSCGHNISVEELAQTRIYWQKEKKMVLTMMSGDVNIWPEYKNRIIFDITNNLSIVILALRPSDEGTYECVILKYEKDAFKREHLAEVTLSVKAD
Average Relative Luminescence Units: 1870 Relative Luminescence Units

Further lines, results first:

Average Relative Luminescence Units: 2567 Relative Luminescence Units
B1: L25S/E35D/M47I/D90N: variant CD80 IgV-Fc, IgV SEQ ID NO:168 (protein)
chain: VIHVTKEVKEVATLSCGHNVSVEESAQTRIYWQKDKKMVLTMMSGDINIWPEYKNRTIFDITNNLSIVILALRPSDEGTYECVVLKYEKNAFKREHLAEVTLSVKAD

Average Relative Luminescence Units: 4225 Relative Luminescence Units
B4: K34E/T41A/L72V: variant CD80 IgV-Fc, IgV SEQ ID NO:174 (protein)
chain: VIHVTKEVKEVATLSCGHNVSVEELAQTRIYWQEEKKMVLAMMSGDMNIWPEYKNRTIFDITNNLSIVILAVRPSDEGTYECVVLKYEKDAFKREHLAEVTLSVKAD

Average Relative Luminescence Units (SEQ ID NO 176): 1461 Relative Luminescence Units
B6: E35D/A71D: variant CD80 IgV-Fc, listed twice: IgV SEQ ID NO:176 (Table E1) and 194 (Table E2) (protein)
chain: VIHVTKEVKEVATLSCGHNVSVEELAQTRIYWQKDKKMVLTMMSGDMNIWPEYKNRTIFDITNNLSIVILDLRPSDEGTYECVVLKYEKDAFKREHLAEVTLSVKAD

Average Relative Luminescence Units: 2597 Relative Luminescence Units
B7: K36R/G78A: variant CD80 IgV-Fc, IgV SEQ ID NO:178 (protein)
chain: VIHVTKEVKEVATLSCGHNVSVEELAQTRIYWQKERKMVLTMMSGDMNIWPEYKNRTIFDITNNLSIVILALRPSDEATYECVVLKYEKDAFKREHLAEVTLSVKAD

Average Relative Luminescence Units: 2656 Relative Luminescence Units
B9: M47V/N48H: variant CD80 IgV-Fc, IgV SEQ ID NO:180 (protein)
chain: VIHVTKEVKEVATLSCGHNVSVEELAQTRIYWQKEKKMVLTMMSGDVHIWPEYKNRTIFDITNNLSIVILALRPSDEGTYECVVLKYEKDAFKREHLAEVTLSVKAD

Average Relative Luminescence Units: 1891 Relative Luminescence Units
B12: Q27H/M43I/A71D/R73S: variant CD80 IgV-Fc, IgV SEQ ID NO:183 (protein)
chain: VIHVTKEVKEVATLSCGHNVSVEELAHTRIYWQKEKKMVLTMISGDMNIWPEYKNRTIFDITNNLSIVILDLSPSDEGTYECVVLKYEKDAFKREHLAEVTLSVKAD

Average Relative Luminescence Units: 2178 Relative Luminescence Units
B14: M47I/E88D: variant CD80 IgV-Fc, IgV SEQ ID NO:186 (protein)
chain: VIHVTKEVKEVATLSCGHNVSVEELAQTRIYWQKEKKMVLTMMSGDINIWPEYKNRTIFDITNNLSIVILALRPSDEGTYECVVLKYDKDAFKREHLAEVTLSVKAD

Average Relative Luminescence Units: 2549 Relative Luminescence Units
B15: M42I/I61V/A71D: variant CD80 IgV-Fc, IgV SEQ ID NO:187 (protein)
chain: VIHVTKEVKEVATLSCGHNVSVEELAQTRIYWQKEKKMVLTIMSGDMNIWPEYKNRTIFDVTNNLSIVILDLRPSDEGTYECVVLKYEKDAFKREHLAEVTLSVKAD

Average Relative Luminescence Units: 924 Relative Luminescence Units
B16: H18Y/M47I/T57I/A71G: variant CD80 IgV-Fc, IgV SEQ ID NO:189 (protein)
chain: VIHVTKEVKEVATLSCGYNVSVEELAQTRIYWQKEKKMVLTMMSGDINIWPEYKNRIIFDITNNLSIVILGLRPSDEGTYECVVLKYEKDAFKREHLAEVTLSVKAD

Average Relative Luminescence Units: 360 Relative Luminescence Units
B18: V20I/M47V/A71D: variant CD80 IgV-Fc, IgV SEQ ID NO:191 (protein)
chain: VIHVTKEVKEVATLSCGHNISVEELAQTRIYWQKEKKMVLTMMSGDVNIWPEYKNRTIFDITNNLSIVILDLRPSDEGTYECVVLKYEKDAFKREHLAEVTLSVKAD
